Experimental data reported in publication PMC12133298.

System: Rho Y80C (Escherichia coli)
Assay: EMSA
Settings: 37 C, 1 mM ATP, 25 mM Tris-Cl pH 8.0, 50 mM KCl, 5 mM MgCl2, 1 mM DTT, 37 C (or 4 C), 15 min, 0.8% agarose 0.5x TBE, 5 nM DNA

Substance	binding signal (fold weaker than WT)	Kd (5 mM Mg2+)
pBR322	7	–
3.5 kb linear dsDNA	–	180 nM
